According to patent publication US9504755B2, “Multi-arm polymeric alkanoate conjugates” (Nektar Therapeutics, priority 2008, dated 2016):
Marks after values point to notes of the source that are not given here.

What was measured:
[1] = Plasma and tumor pharmacokinetics in H460 tumor-bearing nude mice; format: in vivo, mouse; conditions: for AUClast, analyte docetaxel, plasma / AUClast, analyte docetaxel, tumor / Tmax, analyte docetaxel, plasma / Tmax, analyte docetaxel, tumor / Cmax, analyte docetaxel, plasma / Cmax, analyte docetaxel, tumor: single IV; for AUClast, analyte docetaxel, plasma / AUClast, analyte docetaxel, tumor: 25 mg/kg docetaxel or 33 mg/kg conjugate (MTDs); for Tmax, analyte docetaxel, plasma / Tmax, analyte docetaxel, tumor / Cmax, analyte docetaxel, plasma / Cmax, analyte docetaxel, tumor: 25 mg/kg docetaxel or 33 mg/kg conjugate
Protocol: To assess whether the improved antitumor activity was due to greater plasma and tumor docetaxel exposure following 4-ARM-PEG20K-BA-DOC administration, plasma and tumor homogenates were analyzed after a single IV administration of 4-ARM-PEG20K-BA-DOC or docetaxel in mice bearing H460 tumors. In looking at each of 4-ARM-PEG20K-BA-DOC and docetaxel dosed at their respective maximum tolerated doses (MTDs) of 33 and 25 mg/kg, the following was observed. […] The maximum plasma docetaxel concentration with 4-ARM-PEG20K-BA-DOC was 13-fold lower than that with docetaxel.
The objective of this study was to compare docetaxel pharmacokinetics following 4-ARM-PEG20K-BA-docetaxel with that following docetaxel administration, in plasma and tumor tissue of athymic female mice bearing H460 NSCLC tumors and to determine the effects on complete blood counts. This example summarizes the pharmacokinetic results.
H460 tumor cells were grown in vitro and implanted subcutaneously into female HRLN nude mice. When tumor sizes reached between 172 and 288 mg, animals were dosed by intravenous bolus injection with 25 mg/kg docetaxel or 33 mg/kg 4-ARM-PEG20K-BA-docetaxel at a dosing volume of 10 mL/kg. These dose levels correspond to the maximum tolerated doses for docetaxel and 4-ARM-PEG20K-BA-docetaxel administered on a q7d×3 schedule in this tumor model. Blood and tumor samples (n=7 timepoints with n=3/timepoint) were collected from 0 to 7 days after IV injection. Plasma and tumor samples were analyzed for docetaxel and 4-ARM-PEG20K-BA-docetaxel.

H460 tumors = test: Anti-tumor activity in H460 non-small cell lung mouse xenograft model; format: in vivo
Protocol: (§1) H460, LS174T and LoVo tumors were established in female athymic nude mice. Groups of 10 mice received a total of three single doses of 4-ARM-PEG20K-BA-DOC or docetaxel administered every 7 days (q7d×3) at several doses up to a maximum tolerated dose (MTD). Control groups received no treatment after tumor implant. Animals were weighed daily for the first five days and twice weekly thereafter. Tumor volumes were measured twice weekly after the first drug injection.
(§2) Anti-tumor activity was measured as changes in tumor volume, time to reach endpoint, and complete or partial tumor regression.
(§3) Treatment outcome was evaluated by Tumor Growth Delay (TGD), which is defined as the increase in median time to endpoint in a treatment group compared to the control group. Here it is expressed as % TGD, as a percentage to the median time to endpoint of the control group.
(§4) A tumor whose volume was reduced to 50% or less for three consecutive measurements compared to its volume on Day 1 was considered to be in partial regression. Complete regression was defined as volume […] 13.5 mm^3 for three consecutive measurements.
(§5) Acceptable toxicity was defined as a group mean body weight (BW) loss of less than 20% during the study and not more than one treatment-related death among ten treated animals.

LS174T tumors = test: Anti-tumor activity in LS174T colorectal mouse xenograft model; format: in vivo
Protocol: as §1, §2, §3, §4, §5

[2] = single IV 33 mg/kg conjugate, listed as Conjugate Lot 1, 33 mg/kg
[3] = single IV 33 mg/kg conjugate, listed as Conjugate Lot 2, 33 mg/kg
[4] = listed as 4-ARM-PEG20K-BA-docetaxel
[5] = 18.7 mg/kg (56.1 mg/m^2), q7d×3
[6] = 25 mg/kg (75 mg/m^2), q7d×3 (MTD of docetaxel)
[7] = 33.3 mg/kg (99.9 mg/m^2), q7d×3
[8] = 16.9 mg/kg (50.7 mg/m^2), q7d×3
[9] = 22.5 mg/kg (67.5 mg/m^2), q7d×3
[10] = 30 mg/kg (90 mg/m^2), q7d×3 (MTD of docetaxel)
[11] = 40 mg/kg (120 mg/m^2), q7d×3 (MTD of 4-ARM-PEG20K-BA-DOC)

## 4-ARM-PEG20K-Butanoate-Linked Docetaxel Conjugate [4-ARM-PEG20K-BA-DOC]
[1]; [2]
  AUClast, analyte conjugate, tumor: 652.823 µg·h/mL
  Cmax, analyte conjugate, plasma: 128.354 µg/mL
  Cmax, analyte conjugate, tumor: 7062 ng/mL
  Tmax, analyte conjugate, tumor: 4 h
[1]; [3]
  AUClast, analyte conjugate, plasma: 1852.51 µg·h/mL
  AUClast, analyte conjugate, tumor: 718.068 µg·h/mL
  Cmax, analyte conjugate, plasma: 118.209 µg/mL
  Cmax, analyte conjugate, tumor: 7675 ng/mL
[1]
  AUClast, analyte docetaxel, plasma: 6013 ng·h/mL
  AUClast, analyte docetaxel, tumor: 313,558 hr*ng/mL
[1]; listed as Conjugate Lot 1
  AUClast, analyte docetaxel, tumor: 313558 ng·h/mL
  Cmax, analyte docetaxel, plasma: 195 ng/mL
  Cmax, analyte docetaxel, tumor: 2931 ng/mL
  Tmax, analyte docetaxel, plasma: 12 h
  Tmax, analyte docetaxel, tumor: 12 h
[1]; listed as Conjugate Lot 2
  AUClast, analyte docetaxel, plasma: 5570 ng·h/mL
  AUClast, analyte docetaxel, tumor: 380617 ng·h/mL
  Cmax, analyte docetaxel, plasma: 162 ng/mL
  Cmax, analyte docetaxel, tumor: 4623 ng/mL
[1]; [4]
  Tmax, analyte docetaxel, plasma: 0.5 h
  Tmax, analyte docetaxel, tumor: ≤ 12 h
H460 tumors; 14 mg/kg (42 mg/m^2), q7d×3
  BW Loss (%): 0/0%
  No. Surviving/No. Treated Mice: 10/10
  TGD (%): −1%
H460 tumors; [5]
  BW Loss (%): 6.2%
  Day of BW Nadir: 22
  No. Surviving/No. Treated Mice: 10/10
  TGD (%): 56* %
H460 tumors; 19 mg/kg (58% MTD), q7d×3
  Tumor growth delay (%): 56%
H460 tumors; 25 mg/kg (75 mg/m^2), q7d×3
  Day of BW Nadir: 29
  No. Surviving/No. Treated Mice: 10/10
H460 tumors; [6]
  BW Loss (%): 10.4%
  TGD (%): 72** %
H460 tumors; 33 mg/kg (MTD)
  Decrease in body weight: 14.2%
H460 tumors; 33 mg/kg (MTD), q7d×3
  Tumor growth delay (%): 122%
H460 tumors; [7]
  BW Loss (%): 14.2%
  Day of BW Nadir: 22
  No. Surviving/No. Treated Mice: 10/10
  TGD (%): 122** %
H460 tumors; 4-ARM-PEG20K-BA-DOC at 19 mg/kg (58% of its MTD), docetaxel doses less than 25 mg/kg
  antitumor activity below MTD: retained significant antitumor activity
H460 tumors; each at MTD
  % TGD fold greater than for docetaxel: 2.5 fold
LS174T tumors; [8]
  BW Loss (%): 12.4%
  Day of BW Nadir: 23
  No. Surviving/No. Treated Mice: 9/10
  PR (partial regressions): 0
  TGD (%): 126* %
LS174T tumors; [9]
  BW Loss (%): 11.1%
  Day of BW Nadir: 23
  No. Surviving/No. Treated Mice: 10/10
  PR (partial regressions): 0
  TGD (%): 169* %
LS174T tumors; 30 mg/kg (90 mg/m^2), q7d×3
  Day of BW Nadir: 23
  No. Surviving/No. Treated Mice: 9/10
LS174T tumors; [10]
  BW Loss (%): 17.9%
  TGD (%): 250%
LS174T tumors; 40 mg/kg (120 mg/m^2), q7d×3
  Day of BW Nadir: 23
  No. Surviving/No. Treated Mice: 10/10
LS174T tumors; [11]
  BW Loss (%): 18.8%
  TGD (%): 266%
LS174T tumors; each at MTD
  % TGD fold greater than for docetaxel: 1.6 fold
